Experimental data published in patent US20220289796A1.

Target: DENV2 sE PM4, displayed on EXPI293F cells (Dengue virus 2 strain 16681)
Test: flow cytometry, EXPI293F surface display, 40 C

Substance	Fluorescence Ratio (Fr, Var/WT)
1C19 (antibody)	3.1
3H5 (antibody)	0.4

Target: DENV2 sE Mnmer2, displayed on EXPI293F cells (Dengue virus 2 strain 16681)
Test: flow cytometry, EXPI293F surface display, 40 C

Substance	Fluorescence Ratio (Fr, Var/WT)
1C19 (antibody)	0.8
2D22 (antibody)	0.8
3H5 (antibody)	0.8
EDE1 C10 (antibody)	0.1

Target: DENV2 sE Cm2, displayed on EXPI293F cells (Dengue virus 2 strain 16681)
Test: flow cytometry, EXPI293F surface display, 40 C

Substance	Fluorescence Ratio (Fr, Var/WT)
1C19 (antibody)	1.6
2D22 (antibody)	4.4
3H5 (antibody)	0.6
EDE1 C10 (antibody)	3.8

Target: DENV2 sE IntFc2, displayed on EXPI293F cells (Dengue virus 2 strain 16681)
Test: flow cytometry, EXPI293F surface display, 40 C

Substance	Fluorescence Ratio (Fr, Var/WT)
1C19 (antibody)	2.5
2D22 (antibody)	2.5
3H5 (antibody)	0.6
EDE1 C10 (antibody)	3.4

Target: DENV2 sE PM2, displayed on EXPI293F cells (Dengue virus 2 strain 16681)
Test: flow cytometry, EXPI293F surface display, 40 C

Substance	Fluorescence Ratio (Fr, Var/WT)
1C19 (antibody)	2.5
2D22 (antibody)	2.8
3H5 (antibody)	0.5
EDE1 C10 (antibody)	3.7

Target: DENV2 sE WT, displayed on EXPI293F cells (Dengue virus 2 strain 16681)
Test: flow cytometry, EXPI293F surface display, 40 C

Substance	Fluorescence Ratio (Fr, Var/WT)
1C19 (antibody)	1
2D22 (antibody)	1
3H5 (antibody)	1
EDE1 C10 (antibody)	1

Target: DENV2 sE Cm1, displayed on EXPI293F cells (Dengue virus 2 strain 16681)
Test: flow cytometry, EXPI293F surface display, 40 C

Substance	Fluorescence Ratio (Fr, Var/WT)
1C19 (antibody)	3.2
2D22 (antibody)	1.6
3H5 (antibody)	0.6

Target: DENV2 sE IntFc8, displayed on EXPI293F cells (Dengue virus 2 strain 16681)
Test: flow cytometry, EXPI293F surface display, 40 C

Substance	Fluorescence Ratio (Fr, Var/WT)
1C19 (antibody)	3.5
2D22 (antibody)	4.4
3H5 (antibody)	0.4
EDE1 C10 (antibody)	5.9

Target: DENV2 sE HCat3, displayed on EXPI293F cells (Dengue virus 2 strain 16681)
Test: flow cytometry, EXPI293F surface display, 40 C

Substance	Fluorescence Ratio (Fr, Var/WT)
1C19 (antibody)	2.5
2D22 (antibody)	2.8
3H5 (antibody)	0.6
EDE1 C10 (antibody)	3

Target: DENV2 sE SHP2, displayed on EXPI293F cells (Dengue virus 2 strain 16681)
Test: flow cytometry, EXPI293F surface display, 40 C

Substance	Fluorescence Ratio (Fr, Var/WT)
1C19 (antibody)	1.9
2D22 (antibody)	3.1
3H5 (antibody)	0.5
EDE1 C10 (antibody)	3.8

Target: DENV2 sE UndPk6, displayed on EXPI293F cells (Dengue virus 2 strain 16681)
Test: flow cytometry, EXPI293F surface display, 40 C

Substance	Fluorescence Ratio (Fr, Var/WT)
1C19 (antibody)	2.9
2D22 (antibody)	4.9
3H5 (antibody)	0.4
EDE1 C10 (antibody)	4.1

Target: DENV2 sE Mnmer1, displayed on EXPI293F cells (Dengue virus 2 strain 16681)
Test: flow cytometry, EXPI293F surface display, 40 C

Substance	Fluorescence Ratio (Fr, Var/WT)
1C19 (antibody)	0
2D22 (antibody)	0
3H5 (antibody)	0
EDE1 C10 (antibody)	0

Target: DENV2 sE IntFc6, displayed on EXPI293F cells (Dengue virus 2 strain 16681)
Test: flow cytometry, EXPI293F surface display, 40 C

Substance	Fluorescence Ratio (Fr, Var/WT)
1C19 (antibody)	0
2D22 (antibody)	0
3H5 (antibody)	0
EDE1 C10 (antibody)	0

Target: DENV2 sE SHP1, displayed on EXPI293F cells (Dengue virus 2 strain 16681)
Test: flow cytometry, EXPI293F surface display, 40 C

Substance	Fluorescence Ratio (Fr, Var/WT)
1C19 (antibody)	1.8
2D22 (antibody)	4.4
3H5 (antibody)	0.5
EDE1 C10 (antibody)	5.6

Target: DENV2 sE PM4, displayed on EXPI293F cells (Dengue virus 2 strain 16681)
Test: flow cytometry, EXPI293F surface display, RT (~23 C)

Substance	Fluorescence Ratio (Fr, Var/WT)
1C19 (antibody)	2.1
2D22 (antibody)	3
3H5 (antibody)	0.8

Target: DENV2 sE Mnmer2, displayed on EXPI293F cells (Dengue virus 2 strain 16681)
Test: as above

Substance	Fluorescence Ratio (Fr, Var/WT)
1C19 (antibody)	0.8
2D22 (antibody)	2.8
3H5 (antibody)	0.8

Target: DENV2 sE Cm2, displayed on EXPI293F cells (Dengue virus 2 strain 16681)
Test: as above

Substance	Fluorescence Ratio (Fr, Var/WT)
1C19 (antibody)	0.6
2D22 (antibody)	1.9
3H5 (antibody)	0.4

Target: DENV2 sE IntFc2, displayed on EXPI293F cells (Dengue virus 2 strain 16681)
Test: as above

Substance	Fluorescence Ratio (Fr, Var/WT)
1C19 (antibody)	1.4
2D22 (antibody)	1.3
3H5 (antibody)	0.8

Target: DENV2 sE PM2, displayed on EXPI293F cells (Dengue virus 2 strain 16681)
Test: as above

Substance	Fluorescence Ratio (Fr, Var/WT)
1C19 (antibody)	1.7
2D22 (antibody)	2.5
3H5 (antibody)	0.7

Target: DENV2 sE WT, displayed on EXPI293F cells (Dengue virus 2 strain 16681)
Test: as above

Substance	Fluorescence Ratio (Fr, Var/WT)
1C19 (antibody)	1
2D22 (antibody)	1
3H5 (antibody)	1

Target: DENV2 sE Cm1, displayed on EXPI293F cells (Dengue virus 2 strain 16681)
Test: as above

Substance	Fluorescence Ratio (Fr, Var/WT)
1C19 (antibody)	0.9
2D22 (antibody)	0.8
3H5 (antibody)	0.5

Target: DENV2 sE IntFc8, displayed on EXPI293F cells (Dengue virus 2 strain 16681)
Test: as above

Substance	Fluorescence Ratio (Fr, Var/WT)
1C19 (antibody)	2
2D22 (antibody)	2.5
3H5 (antibody)	0.5

Target: DENV2 sE HCat3, displayed on EXPI293F cells (Dengue virus 2 strain 16681)
Test: as above

Substance	Fluorescence Ratio (Fr, Var/WT)
1C19 (antibody)	1.5
2D22 (antibody)	1.6
3H5 (antibody)	0.7

Target: DENV2 sE SHP2, displayed on EXPI293F cells (Dengue virus 2 strain 16681)
Test: as above

Substance	Fluorescence Ratio (Fr, Var/WT)
1C19 (antibody)	1.2
2D22 (antibody)	2.4
3H5 (antibody)	0.6

Target: DENV2 sE UndPk6, displayed on EXPI293F cells (Dengue virus 2 strain 16681)
Test: as above

Substance	Fluorescence Ratio (Fr, Var/WT)
1C19 (antibody)	2.4
2D22 (antibody)	2.7
3H5 (antibody)	0.8

Target: DENV2 sE Mnmer1, displayed on EXPI293F cells (Dengue virus 2 strain 16681)
Test: as above

Substance	Fluorescence Ratio (Fr, Var/WT)
1C19 (antibody)	0.2
2D22 (antibody)	0.5
3H5 (antibody)	0.3

Target: DENV2 sE IntFc6, displayed on EXPI293F cells (Dengue virus 2 strain 16681)
Test: as above

Substance	Fluorescence Ratio (Fr, Var/WT)
1C19 (antibody)	0.8
2D22 (antibody)	1
3H5 (antibody)	0.6

Target: DENV2 sE SHP1, displayed on EXPI293F cells (Dengue virus 2 strain 16681)
Test: as above

Substance	Fluorescence Ratio (Fr, Var/WT)
1C19 (antibody)	1.3
2D22 (antibody)	3
3H5 (antibody)	0.7

Target: DENV2 sE PM4, displayed on EXPI293F cells (Dengue virus 2 strain 16681)
Test: flow cytometry, displayed sE, 40 C

Substance	Fr (geometric mean fluorescence intensity ratio, variant/WT) [fold]
2D22 (antibody)	> 2
EDE1 C10 (antibody)	> 2

Target: DENV2 sE IntFc2, displayed on EXPI293F cells (Dengue virus 2 strain 16681)
Test: flow cytometry, displayed sE, 40 C

Substance	Fr (geometric mean fluorescence intensity ratio, variant/WT) [fold]
2D22 (antibody)	> 2
EDE1 C10 (antibody)	> 2

Target: DENV2 sE PM2, displayed on EXPI293F cells (Dengue virus 2 strain 16681)
Test: flow cytometry, displayed sE, 40 C

Substance	Fr (geometric mean fluorescence intensity ratio, variant/WT) [fold]
2D22 (antibody)	> 2
EDE1 C10 (antibody)	> 2

Target: DENV2 sE IntFc8, displayed on EXPI293F cells (Dengue virus 2 strain 16681)
Test: flow cytometry, displayed sE, 40 C

Substance	Fr (geometric mean fluorescence intensity ratio, variant/WT) [fold]
2D22 (antibody)	> 2
EDE1 C10 (antibody)	> 2

Target: DENV2 sE HCat3, displayed on EXPI293F cells (Dengue virus 2 strain 16681)
Test: flow cytometry, displayed sE, 40 C

Substance	Fr (geometric mean fluorescence intensity ratio, variant/WT) [fold]
2D22 (antibody)	> 2
EDE1 C10 (antibody)	> 2

Target: DENV2 sE SHP2, displayed on EXPI293F cells (Dengue virus 2 strain 16681)
Test: flow cytometry, displayed sE, 40 C

Substance	Fr (geometric mean fluorescence intensity ratio, variant/WT) [fold]
2D22 (antibody)	> 2
EDE1 C10 (antibody)	> 2

Target: DENV2 sE UndPk6, displayed on EXPI293F cells (Dengue virus 2 strain 16681)
Test: flow cytometry, displayed sE, 40 C

Substance	Fr (geometric mean fluorescence intensity ratio, variant/WT) [fold]
2D22 (antibody)	> 2
EDE1 C10 (antibody)	> 2

Target: DENV2 sE SHP1, displayed on EXPI293F cells (Dengue virus 2 strain 16681)
Test: flow cytometry, displayed sE, 40 C

Substance	Fr (geometric mean fluorescence intensity ratio, variant/WT) [fold]
2D22 (antibody)	> 2
EDE1 C10 (antibody)	> 2
